Measurements from patent US20200255533A1 (NUMAB THERAPEUTICS, published 2020).
Where a chain is given by its changes, count along the chain named. Numbers in names are those of the source.

B1: Vκ3/VH4 consensus λ-capped (TNF-specific scFv) (scFv)
scFv: DIVLTQSPATLSLSPGERATLSCQASQSISDWLAWYQQKPGQAPRLLIYGASRLASGVPARFSGSGSGTDFTLTISSLEPEDFAVYYCQQGWSDSYVDNLFGGGTKLTVLGGGGGSGGGGSGGGGSGGGGSQVQLQESGPGLVKPSETLSLTCTVSGFSLSSGAMSWIRQPPGKGLEWIGVIISSGATYYASWAKGRVTISVDTSKNQFSLKLSSVTAADTAVYYCARGGPDDSNSMGTFDPWGQGTLVTVSS
notes: scFv
B2: Vκ3/VH4 consensus (T24K, T84S) λ-capped (TNF-specific scFv) (scFv)
scFv: B1 scFv with T154K, T204S
notes: scFv; also called Vκ3/VH4mut
B3: Vκ1/VH4 consensus λ-capped (TNF-specific scFv) (scFv)
scFv: DIQMTQSPSSLSASVGDRVTITCQASQSISDWLAWYQQKPGKAPKLLIYGASRLASGVPSRFSGSGSGTDFTLTISSLQPEDFATYYCQQGWSDSYVDNLFGGGTKLTVLGGGGGSGGGGSGGGGSGGGGSQVQLQESGPGLVKPSETLSLTCTVSGFSLSSGAMSWIRQPPGKGLEWIGVIISSGATYYASWAKGRVTISVDTSKNQFSLKLSSVTAADTAVYYCARGGPDDSNSMGTFDPWGQGTLVTVSS
notes: scFv; also called capped Vκ1/VH4 consensus molecule
B4: Vκ1/VH4 consensus (T24K, T84S) λ-capped (TNF-specific scFv) (scFv)
scFv: B3 scFv with T154K, T204S
notes: scFv; also called Vκ1/VH4mut; mutant variant of Vκ1/VH4

Molecular target: human TNF (human, UniProt P01375 77-233)
Sequence (P01375 77-233 limits assumed): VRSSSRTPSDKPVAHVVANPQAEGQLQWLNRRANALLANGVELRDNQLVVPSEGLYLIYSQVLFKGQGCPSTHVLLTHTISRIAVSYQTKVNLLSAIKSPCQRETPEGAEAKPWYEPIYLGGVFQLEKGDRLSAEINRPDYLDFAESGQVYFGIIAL
Assay: SPR, scFv

Row | Binder | Kd [nM] | koff [s⁻¹] | kon [M⁻¹ s⁻¹]
1 | B1 | 0.119 | 5.25e-05 | 440000
2 | B2 | 0.0793 | 3.09e-05 | 390000
3 | B3 | 0.0533 | 3.36e-05 | 631000
4 | B4 | 0.043 | 3.28e-05 | 764000
